The source of these data is article PMC3646547 (Nature communications, 2012).

The data set “crystal structure” deals with the molecule itself. Description: crystal structure.
In data set [1] the target is T1, MHF1;MHF2 (human;human, UniProt Q8N2Z9;A8MT69 1-138;1-81, |). Description: fluorescence polarization. For orientation: Polarisation of emitted light reports the rotation of a fluorescent probe.
Data set [2] addresses MHF1 K73A/R74A;MHF2;FANCM-F (human;human;human, UniProt Q8N2Z9;A8MT69;Q8IYD8 1-138;1-81;661-800, K73A;R74A||). In words: EMSA. On the technique in general: A gel shift assay detects complexes by their altered migration in electrophoresis.
Data set [3] deals with MHF1;MHF2 K27A/K29A;FANCM-F (human;human;human, UniProt Q8N2Z9;A8MT69;Q8IYD8 1-138;1-81;661-800, |K27A;K29A|). In words: EMSA.
MHF1;MHF2 K27A/K29A;FANCM-F, sequence (A8MT69 whole entry K27A/K29A, chain 2 of 2): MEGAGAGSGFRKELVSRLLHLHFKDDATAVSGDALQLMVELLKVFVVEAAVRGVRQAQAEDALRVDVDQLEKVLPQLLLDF
MHF1;MHF2 K27A/K29A;FANCM-F, sequence (Q8IYD8 661-800, chain 3 of 2): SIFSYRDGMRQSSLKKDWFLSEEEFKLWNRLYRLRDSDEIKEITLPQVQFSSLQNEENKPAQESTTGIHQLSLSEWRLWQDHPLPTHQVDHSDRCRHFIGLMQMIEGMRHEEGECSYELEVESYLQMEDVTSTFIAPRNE
Data set [4] concerns the target T1, MHF1;MHF2. In words: EMSA.
In data set [5] the target is MHF1 K73A/R74A;MHF2;FANCM-F K675A/K676A (human;human;human, UniProt Q8N2Z9;A8MT69;Q8IYD8 1-138;1-81;661-800, K73A;R74A||K675A;K676A). In words: EMSA.
MHF1 K73A/R74A;MHF2;FANCM-F K675A/K676A, sequence (A8MT69 whole entry, chain 2 of 2): as the sequence (A8MT69 whole entry K27A/K29A, chain 2 of 2) above, with A27K, A29K counted along it
MHF1 K73A/R74A;MHF2;FANCM-F K675A/K676A, sequence (Q8IYD8 661-800 K675A/K676A, chain 3 of 2): as the sequence (Q8IYD8 661-800, chain 3 of 2) above, with K15A, K16A counted along it
Data set [6] has as its target MHF1 R12A/R18A/K73A/R74A;MHF2;FANCM-F K686A/R690A/R693A (human;human;human, UniProt Q8N2Z9;A8MT69;Q8IYD8 1-138;1-81;661-800, R12A;R18A;K73A;R74A||K686A;R690A;R693A). In words: EMSA.
The next data set deals with MHF1 1-107;MHF2;FANCM-F (human;human;human, UniProt Q8N2Z9;A8MT69;Q8IYD8 1-107;1-81;661-800, ||). Description: not stated.
MHF1 1-107;MHF2;FANCM-F, sequence (A8MT69 whole entry, chain 2 of 2): as the sequence (A8MT69 whole entry K27A/K29A, chain 2 of 2) above, with A27K, A29K counted along it
MHF1 1-107;MHF2;FANCM-F, sequence (Q8IYD8 661-800, chain 3 of 2): as the sequence (Q8IYD8 661-800, chain 3 of 2) above
Data set [7] concerns the target MHF1 K73A/R74A;MHF2 R11A/K12A;FANCM-F K675A/K676A (human;human;human, UniProt Q8N2Z9;A8MT69;Q8IYD8 1-138;1-81;661-800, K73A;R74A|R11A;K12A|K675A;K676A). Description: EMSA.

T1 sequence (A8MT69 whole entry, one chain of several): as the sequence (A8MT69 whole entry K27A/K29A, chain 2 of 2) above, with A27K, A29K counted along it
MHF1 R12A/R18A/K73A/R74A;MHF2;FANCM-F K686A/R690A/R693A, sequence (Q8N2Z9 whole entry R12A/R18A/K73A/R74A, chain 1 of 3): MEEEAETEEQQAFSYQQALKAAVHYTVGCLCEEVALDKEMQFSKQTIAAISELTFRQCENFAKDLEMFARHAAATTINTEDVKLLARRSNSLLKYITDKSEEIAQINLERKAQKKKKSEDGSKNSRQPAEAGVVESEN
MHF1 R12A/R18A/K73A/R74A;MHF2;FANCM-F K686A/R690A/R693A, sequence (A8MT69 whole entry, chain 2 of 3): as the sequence (A8MT69 whole entry K27A/K29A, chain 2 of 2) above, with A27K, A29K counted along it
MHF1 R12A/R18A/K73A/R74A;MHF2;FANCM-F K686A/R690A/R693A, sequence (Q8IYD8 661-800 K686A/R690A/R693A, chain 3 of 3): as the sequence (Q8IYD8 661-800, chain 3 of 2) above, with K26A, R30A, R33A counted along it
MHF1 K73A/R74A;MHF2 R11A/K12A;FANCM-F K675A/K676A, sequence (A8MT69 whole entry R11A/K12A, chain 2 of 2): as the sequence (A8MT69 whole entry K27A/K29A, chain 2 of 2) above, with R11A, K12A, A27K, A29K counted along it
MHF1 K73A/R74A;MHF2 R11A/K12A;FANCM-F K675A/K676A, sequence (Q8IYD8 661-800 K675A/K676A, chain 3 of 2): as the sequence (Q8IYD8 661-800, chain 3 of 2) above, with K15A, K16A counted along it
MHF1 K73A/R74A;MHF2;FANCM-F, sequence (A8MT69 whole entry, chain 2 of 2): as the sequence (A8MT69 whole entry K27A/K29A, chain 2 of 2) above, with A27K, A29K counted along it
MHF1 K73A/R74A;MHF2;FANCM-F, sequence (Q8IYD8 661-800, chain 3 of 2): as the sequence (Q8IYD8 661-800, chain 3 of 2) above

B1: MHF1^1-107 (truncated MHF1 with the C-terminal 31 residues deleted) (domain or fragment, human, UniProt Q8N2Z9 1-107, looked up)
chain: MEEEAETEEQQRFSYQQRLKAAVHYTVGCLCEEVALDKEMQFSKQTIAAISELTFRQCENFAKDLEMFARHAKRTTINTEDVKLLARRSNSLLKYITDKSEEIAQIN
Turning to B1, the binding result in the data set “crystal structure” is on record as “binds”.

B2: 59 bp dsDNA (FPA) (dsDNA)
DNA 1: ACGCTGCCGAATTCTACCAGTGCCTTGCTAGGACATCTTTGCCCACCTGCAGGTTCACC
DNA 2: GGTGAACCTGCAGGTGGGCAAAGATGTCCTAGCAAGGCACTGGTAGAATTCGGCAGCGT
In the case of B2, the binding result in the data set with MHF1;MHF2 [1] is reported as “binds”.

B3: 59 bp dsDNA (EMSA) (dsDNA)
DNA 1: B2 DNA 1
DNA 2: B2 DNA 2
Consider B3, for which the binding result in data set [2] is “binds”; in data set [3] it was “binds”; in the data set with MHF1;MHF2 [4] it was “binds”; in [5], “no binding”; in [6], “no binding”; with MHF1 1-107;MHF2;FANCM-F it was “no binding”. The binding result in [7] is reported as “no binding”.
